Assay results taken from article PMC6511849 (Nucleic Acids Research, 2019).
One block for each molecule: values may come before it. Non-standard residues stand in square brackets, D forms with d. No end group written: not given here. *: point of attachment. FITC = O=C1OC2(c3ccc(O)cc3Oc3cc(O)ccc32)c2ccc(NC(=S)*)cc21; pS = N[C@@H](COP(=O)(O)O)C(=O)O; Ahx = NCCCCCC(=O)O

B1: transportin 3 (TNPO3) (natural protein)
chain: MEGAKPTLQLVYQAVQALYHDPDPSGKERASFWLGELQRSVHAWEISDQLLQIRQDVESCYFAAQTMKMKIQTSFYELPTDSHASLRDSLLTHIQNLKDLSPVIVTQLALAIADLALQMPSWKGCVQTLVEKYSNDVTSLPFLLEILTVLPEEVHSRSLRIGANRRTEIIEDLAFYSSTVVSLLMTCVEKAGTDEKMLMKVFRCLGSWFNLGVLDSNFMANNKLLALLFEVLQQDKTSSNLHEAASDCVCSALYAIENVETNLPLAMQLFQGVLTLETAYHMAVAREDLDKVLNYCRIFTELCETFLEKIVCTPGQGLGDLRTLELLLICAGHPQYEVVEISFNFWYRLGEHLYKTNDEVIHGIFKAYIQRLLHALARHCQLEPDHEGVPEETDDFGEFRMRVSDLVKDLIFLIGSMECFAQLYSTLKEGNPPWEVTEAVLFIMAAIAKSVDPENNPTLVEVLEGVVRLPETVHTAVRYTSIELVGEMSEVVDRNPQFLDPVLGYLMKGLCEKPLASAAAKAIHNICSVCRDHMAQHFNGLLEIARSLDSFLLSPEAAVGLLKGTALVLARLPLDKITECLSELCSVQVMALKKLLSQEPSNGISSDPTVFLDRLAVIFRHTNPIVENGQTHPCQKVIQEIWPVLSETLNKHRADNRIVERCCRCLRFAVRCVGKGSAALLQPLVTQMVNVYHVHQHSCFLYLGSILVDEYGMEEGCRQGLLDMLQALCIPTFQLLEQQNGLQNHPDTVDDLFRLATRFIQRSPVTLLRSQVVIPILQWAIASTTLDHRDANCSVMRFLRDLIHTGVANDHEEDFELRKELIGQVMNQLGQQLVSQLLHTCCFCLPPYTLPDVAEVLWEIMQVDRPTFCRWLENSLKGLPKETTVGAVTVTHKQLTDFHKQVTSAEECKQVCWALRDFTRLFR
B2: D3P peptide with Glu for Tyr at position 1 (ERERERER backbone with phosphoserine at position 5) (peptide)
peptide: {FITC-Ahx}-ERER[pS]RER

Key:
[1] = biological target: TNPO3 (UniProt Q9Y5L0); assay: fluorescence polarisation titration; conditions: reference: unmodified D23 peptide
[2] = biological target: CPSF6 D1 peptide (unmodified 8-mer) (human); assay: fluorescence polarisation
[3] = biological target: CPSF6 D2 peptide (unmodified 8-mer) (human); assay: fluorescence polarisation
[4] = biological target: ER/S peptide (D3 peptide with Glu for Tyr at position 1) (human) (UniProt Q16630); assay: fluorescence polarisation
[5] = biological target: SRSF1 RS peptide (unmodified 8-mer); assay: fluorescence polarisation
[6] = biological target: SRSF1 RSP peptide (phosphorylated 8-mer); assay: fluorescence polarisation
[7] = biological target: B2; assay: fluorescence polarisation
[8] = biological target: T1, ERERERER backbone with Tyr at position 1; assay: fluorescence polarisation
T1 peptide: {FITC-Ahx}-YRERERER

[9] = biological target: T2, CPSF6 D23-4Glu peptide (human, UniProt Q16630 509-528, K510E | R512E | R522E | R524E, FITC-Ahx label); assay: fluorescence polarisation
T2 peptide: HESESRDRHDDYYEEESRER

[10] = biological target: T3, CPSF6 D2P-D3 peptide (human, UniProt Q16630 509-528); assay: fluorescence polarisation
T3 peptide: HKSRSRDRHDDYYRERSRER

[11] = biological target: GST-RSLD-WT, non-phosphorylated (expressed without CLK1) (human); assay: pull-down
[12] = biological target: B1; assay: fluorescence polarisation

GST-RSLD-WT, non-phosphorylated (expressed without CLK1) (human), sequence (Q16630 whole entry): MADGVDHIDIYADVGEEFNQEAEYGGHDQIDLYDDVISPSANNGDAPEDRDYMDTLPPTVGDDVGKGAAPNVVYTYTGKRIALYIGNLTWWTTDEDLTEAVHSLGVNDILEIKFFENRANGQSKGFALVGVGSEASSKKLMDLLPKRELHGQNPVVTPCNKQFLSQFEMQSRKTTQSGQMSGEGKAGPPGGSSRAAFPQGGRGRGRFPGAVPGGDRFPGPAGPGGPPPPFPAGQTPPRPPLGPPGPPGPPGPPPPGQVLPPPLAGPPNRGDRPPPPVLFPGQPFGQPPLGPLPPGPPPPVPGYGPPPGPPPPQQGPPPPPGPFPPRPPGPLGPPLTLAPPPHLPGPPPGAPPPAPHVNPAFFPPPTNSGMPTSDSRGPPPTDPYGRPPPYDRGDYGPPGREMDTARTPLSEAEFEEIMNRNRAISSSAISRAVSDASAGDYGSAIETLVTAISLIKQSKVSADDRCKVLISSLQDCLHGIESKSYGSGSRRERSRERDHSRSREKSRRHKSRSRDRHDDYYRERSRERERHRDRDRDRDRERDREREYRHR
ER/S peptide (D3 peptide with Glu for Tyr at position 1) (human), sequence (Q16630 whole entry, looked up, tested part not stated): as the sequence (Q16630 whole entry) above

Molecule: CPSF6 D2-D3 region 20-mer (D23) (from UniProt Q16630) D2P-D3 peptide
fold change ([1]; sites S511,S513): stronger

Molecule: B1
Kd [2]: 141 µM | Kd [3]: > 1000 µM | Kd [4]: > 1000 µM | Kd [5]: > 1000 µM | Kd [6]: 1.3 µM | fold increase of affinity against the ERERERER backbone [7]: ~5 fold | fold increase of affinity against the ERERERER backbone [8]: ~10 fold | fold reduction of affinity against the D23 peptide [9]: ~25 fold | fold increase of affinity against the D23 peptide [10]: ~3.3 fold | percent of input TNPO3 recovered [11]: 30%

Molecule: B2
Kd [12]: 17.1 µM

More lines, now with the values ahead:

fold change ([1]; sites S511,S513,S525): stronger
Molecule: CPSF6 D2-D3 region 20-mer (D23) (from UniProt Q16630) D2P-D3P peptide

fold change ([1]; sites S525): stronger
Molecule: CPSF6 D2-D3 region 20-mer (D23) (from UniProt Q16630) D2-D3P peptide
